From PMC3480499, “Isolation of Reovirus T3D Mutants Capable of Infecting Human Tumor Cells Independent of Junction Adhesion Molecule-A” (PLoS ONE, 2012) come the findings set out here.

Positions count from the first letter of the chain named. In names and notes the source's numbering stands.

To fix the notation:
B1: reovirus type 3 Dearing (T3D) spike protein σ1, wild type (natural protein)
chain: MDPRLREEVVRLIIALTSDNGASLSKGLESRVSALEKTSQIHSDTILRITQGLDDANKRIIALEQSRDDLVASVSDAQLAISRLESSIGALQTVVNGLDSSVTQLGARVGQLETGLAELRVDHDNLVARVDTAERNIGSLTTELSTLTLRVTSIQADFESRISTLERTAVTSAGAPLSIRNNRMTMGLNDGLTLSGNNLAIRLPGNTGLNIQNGGLQFRFNTDQFQIVNNNLTLKTTVFDSINSRIGATEQSYVASAVTPLRLNSSTKVLDMLIDSSTLEINSSGQLTVRSTSPNLRYPIADVSGGIGMSPNYRFRQSMWIGIVSYSGSGLNWRVQVNSDIFIVDDYIHICLPAFDGFSIADGGDLSLNFVTGLLPPLLTGDTEPAFHNDVVTYGAQTVAIGLSSGGAPQYMSKNLWVEQWQDGVLRLRVEGGGSITHSNSKWPAMTVSYPRSFT
modifications: [35S]-methionine labelled
notes: a stop codon was introduced behind the S1 ORF so that the Myc-His tag of the vector is absent; also called wt σ1; wt T3D σ1
B2: reovirus T3D spike protein σ1 with the Y313A substitution (natural protein)
chain: B1 chain with Y313A
modifications: [35S]-methionine labelled
notes: Outer capsid (attachment/spike) protein σ1 of mammalian reovirus type 3 Dearing, S1 ORF without tag, with Y313A made by mutation PCR on pDGC-S1delTag; Forms only intermediate trimers (shaft trimerized, head monomeric), no mature trimers; Parent plasmid as for m1; also called σ1-Y313A; S1Y313A
B3: reovirus T3D spike protein σ1 with the Q336R substitution (natural protein)
chain: B1 chain with Q336R
modifications: [35S]-methionine labelled
notes: Outer capsid (attachment/spike) protein σ1 of mammalian reovirus type 3 Dearing, S1 ORF without tag, with Q336R made by mutation PCR on pDGC-S1delTag; Q336R arose spontaneously in the jin-1 and jin-2 viruses; Carries only Q336R, not T193M of jin-1 or G187R of jin-2; Parent plasmid as for m1; also called σ1-Q336R; S1Q336R

The data set concerns the molecule itself. The experiment in a line: in vitro trimerization assay (mild SDS-PAGE at 4°C); [35S]-methionine labelled in vitro transcription-translation products incubated in sample buffer (2% SDS, 2.5% β-mercaptoethanol) 30 min at 37°C (or boiled 5 min to disrupt trimers), run on a 10% SDS-polyacrylamide gel kept at 4°C, autoradiography.
Usually stoichiometry N stands for a count of units in the complex or per binding partner. For B1, the “stoichiometry N” value is 3.
On to B2, for which the “stoichiometry N” value came out at 3.
The figure for B3 is 3.
